These results are taken from patent US20230355784A1.

Square brackets hold non-standard residues; d marks the D form. Ends that are not written are not given here.

The target in this assay is mAB anti V5 (Thermo Scientific) (mouse). Briefly: 1 ug/ml mouse anti V5 with increasing SADC, capture on streptavidin plate, bound IgG by ELISA.

IPNPLLGLDGGSGDYKDDDDKGK[BiotinAca]GC (peptide, part only; not given: haptoglobin scaffold, part only, also: bound to haptoglobin scaffold) [SADC with haptoglobin scaffold carrying the tagged V5 peptide] gave a concentration for a half-maximal effect (EC50) of 0.0555 µg/mL.

In turn, IPNPLLGLDGGSGDYKDDDDKGK[BiotinAca]GC (peptide, part only; not given: albumin scaffold, not shown: large carriers, also: bound to albumin scaffold) [SADC with albumin scaffold carrying the tagged V5 peptide] yielded an EC50 of 0.0279 µg/mL. On to IPNPLLGLDGGSGDYKDDDDKGK[BiotinAca]GC (peptide, part only; not given: transferrin scaffold, not shown: large carriers, also: bound to transferrin scaffold) [SADC with transferrin scaffold carrying the tagged V5 peptide], for which the 50% effective concentration (EC50) is 0.007 µg/mL.

As usually defined, the EC50 is the concentration giving half of the maximal effect.
